Data: patent US20100092465A1, “TREATMENT OF GRAFT-VERSUS-HOST DISEASE” (priority 2006, published 2010)
Values joined by “and” are separate entries in the source; they are usually repeats but may differ in a detail not shown here. Equal values may be shown once.

Experiments:
huIL-27 = target: T1, huIL-27 (Homo sapiens, UniProt Q14213+Q8NEV9); test: Phospho-STAT3 neutralization assay, mouse spleens, huIL-27; format: cell-based; settings: Mouse Spleens; ligand huIL-27 at EC90
T1 sequence (Q14213 21-229): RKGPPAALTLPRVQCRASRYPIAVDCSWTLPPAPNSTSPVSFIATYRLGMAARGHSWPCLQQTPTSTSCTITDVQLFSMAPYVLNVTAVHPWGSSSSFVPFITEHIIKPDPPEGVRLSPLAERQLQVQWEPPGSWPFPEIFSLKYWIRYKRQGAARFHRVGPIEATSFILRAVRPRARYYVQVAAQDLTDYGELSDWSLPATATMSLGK
T1 sequence (Q8NEV9 29-243): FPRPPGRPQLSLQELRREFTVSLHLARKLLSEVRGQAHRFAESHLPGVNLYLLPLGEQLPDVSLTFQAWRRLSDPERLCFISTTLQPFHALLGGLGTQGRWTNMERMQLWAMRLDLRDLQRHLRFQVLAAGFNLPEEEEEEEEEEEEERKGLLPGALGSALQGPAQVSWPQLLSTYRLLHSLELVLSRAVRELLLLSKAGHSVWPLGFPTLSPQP
Description: Whole mouse spleens were harvested from C57 B1/6 mice and washed two times with 1×PBS before being plated out at 2×10^5 cells/well in assay media (RPMI 1640 plus 10% fetal bovine serum) in 96-well, round-bottom tissue culture plates. Total human PBMC (peripheral blood mononuclear cells) were thawed from a frozen vial collected from a leukapherisis donation and washed two times with 1×PBS before being plated out at 10^6 cells/well in assay media in 96-well, round-bottom tissue culture plates. […] Following pre-incubation, treatments were added to the plates containing the cells and incubated together at 37° C. for 15 minutes.
Following incubation, cells were washed with ice-cold wash buffer (BIO-PLEX Cell Lysis Kit, BIO-RAD Laboratories, Hercules, Calif.) and put on ice to stop the reaction according to manufacturer's instructions. […]
Capture beads (BIO-PLEX Phospho-Stat3 Assay, BIO-RAD Laboratories) were combined with 50 μL of 1:1 diluted lysates and added to a 96-well filter plate according to manufacture's instructions (BIO-PLEX Phosphoprotein Detection Kit, BIO-RAD Laboratories). […] After the final wash, beads were resuspended in 125 μL/well of bead suspension buffer, shaken for 30 seconds, and read on an array reader (BIO-PLEX, BIO-RAD Laboratories) according to the manufacture's instructions. Data were analyzed using analytical softward (BIO-PLEX MANAGER 3.0, BIO-RAD Laboratories). […]

mouse IL-27 = target: T2, mouse IL-27 (Mus musculus, UniProt O35228+Q8K3I6); test: IL-27 inhibition of IL-2 production neutralized by IL-27RA Fc; format: cell-based
T2 sequence (O35228+Q8K3I6 with tags, fused parts or gaps): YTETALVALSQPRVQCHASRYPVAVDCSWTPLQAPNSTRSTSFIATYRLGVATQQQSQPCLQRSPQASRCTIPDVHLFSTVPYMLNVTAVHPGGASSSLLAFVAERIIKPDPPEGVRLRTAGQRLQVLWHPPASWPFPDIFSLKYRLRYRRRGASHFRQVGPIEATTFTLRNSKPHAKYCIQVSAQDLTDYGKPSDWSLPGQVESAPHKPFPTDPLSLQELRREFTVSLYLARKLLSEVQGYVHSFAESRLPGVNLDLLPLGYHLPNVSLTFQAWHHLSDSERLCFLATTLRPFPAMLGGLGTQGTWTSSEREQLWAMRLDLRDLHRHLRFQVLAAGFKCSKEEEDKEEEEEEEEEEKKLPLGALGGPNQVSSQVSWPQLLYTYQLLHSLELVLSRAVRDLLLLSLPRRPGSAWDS
Protocol: For testing of the soluble receptor, single-chain mouse IL-27 (10 ng/ml) was preincubated for 30 minutes at 37 degrees C. with either IL27RAm(mFc1) (10.0 and 5.0 .micro.g/ml), IL27RA-Fc5, mouse Fc1 protein (10.0 and 5.0 .micro.g/ml), human Fc5 protein (10.0 and 5.0 .micro.g/ml), or no recombinant protein in wells of the anti-CD3 coated plates. 4×10^5 CD4^+ CD62L high cells were added to the wells. Duplicate plates were set up for all experimental conditions. The plates were then cultured at 37 degrees for up to 72 hours. Cell supernatants were collected from one set of plates at 48 hours and from the duplicate set of plates at 72 hours. The supernatants were stored frozen at −80° C.

IC50 (huIL-27): 0.32 nM
IL-2 concentration (mouse IL-27; 48 hr, protein conc. 5 (µg/ml; Fc controls in molar equiv.) + IL-27 10 ng/ml): 5784.11 pg/mL
IL-2 concentration (mouse IL-27; 48 hr, protein conc. 10 (µg/ml; Fc controls in molar equiv.) + IL-27 10 ng/ml, listed as hIL-27RA): 5774.94 pg/mL and 5333.6 pg/mL
IL-2 concentration (mouse IL-27; 72 hr, protein conc. 5 (µg/ml; Fc controls in molar equiv.) + IL-27 10 ng/ml): 1869.62 pg/mL
IL-2 concentration (mouse IL-27; 72 hr, protein conc. 10 (µg/ml; Fc controls in molar equiv.) + IL-27 10 ng/ml, listed as hIL-27RA): 28607.63 pg/mL and 17481.17 pg/mL
inhibition (partial block) of the ability of mouse IL-27 to inhibit IL-2 production (mouse IL-27; naïve CD4 T cells): ~50%
Substance: human IL-27RA-Fc5: human IL27RA extracellular domain (amino acids 1 to 512 of SEQ ID NO:5) fused to Fc5, effector minus human gamma1 Fc; SEQ ID NO:3
